From paper PMC12757645, “Bacillus subtilis encodes three N-acetylcysteine deacetylase enzymes that can catalyze the final step in S-(2-succino)cysteine breakdown” (The Journal of Biological Chemistry, 2025)

B1: YhaA (Bacillus subtilis subsp. subtilis str. 168) (protein)
chain: MSISTLQKEINKQLDGCFEEMVEIRRHFHMYPELSFQEEKTAAFIASYYESLGVPIRTNVGGRGVLANIEGSEPGPTVALRADFDALPIQDEKDVPYASKVPGVMHACGHDGHTAALLAVAKVLHQNRHELKGTFVMIHQHAEEYYPGGAKPMIDDGCLENTDVIFGTHLWATEPLGTILCRPGAVMAAADRFTIKVFGKGGHGAHPHDTKDAVLIGSQIVSSLQHIVSRKVNPIQSAVISTGSFIADNPFNVIADQAVLIGTARSFDENVRDILEKEIEAVVKGICSMHGASYEYTYEQGYPAVVNHPAETNHLVSTAKNTEGVQQVIDGEPQMGGEDFAYYLQNVKGTFFFTGAAPEQPERVYSHHHPKFDINEKAMLTAAKVLAGAAITYHQL
B2: YtnL (Bacillus subtilis subsp. subtilis str. 168) (protein)
chain: MSLDYWRNIEGSYPYQTTGNDILTLKEESNPVNLSTLEKQLIGIRRHLHQYPELSKEEFETTAFIKKCLKEKGIQIRPTALKTGVFADIAGESEGPAIALRADIDALPIEEKTGLPYASKHKGIMHACGHDFHTAALLGAAFLLKENQDSLKGKIRLLFQPAEEAGAGATKVIEDGQLDGIDAVIGLHNKPDIAVGTVGLKTGPLMAAVDRFKVEIEGKGAHAALPHNGFDPIIGASQLIVALQTIVSRNVNPLQSAILTVGKINGGSTWNVIPDTVVIEGTVRTFDSEVRNQVKQRFFAVTEQISAAFSLKANVKWHSGPPPLCNDEAITGLVRDAAHKAKLQVIDPAPSTAGEDFAYYLEHIPGSFAFFGTDGDHDWHHPAFTIDETAIIKASYFLYESAKRLLDSNEESKISD
B3: ScmP (Bacillus subtilis subsp. subtilis str. 168) (protein)
chain: MADKAFHTRLINMRRDLHEHPELSFQEVETTKKIRRWLEEEQIEILDVPQLKTGVIAEIKGREDGPVIAIRADIDALPIQEQTNLPFASKVDGTMHACGHDFHTASIIGTAMLLNQRRAELKGTVRFIFQPAEEIAAGARKVLEAGVLNGVSAIFGMHNKPDLPVGTIGVKEGPLMASVDRFEIVIKGKGGHAGIPNNSIDPIAAAGQIISGLQSVVSRNISSLQNAVVSITRVQAGTSWNVIPDQAEMEGTVRTFQKEARQAVPEHMRRVAEGIAAGYGAQAEFKWFPYLPSVQNDGTFLNAASEAAARLGYQTVHAEQSPGGEDFALYQEKIPGFFVWMGTNGTEEWHHPAFTLDEEALTVASQYFAELAVIVLETIK

Substrate: CC(=O)N[C@@H](CS)C(=O)O
Assay: purified protein
Type: biochemical, Bacillus subtilis
Conditions: 50 mM potassium phosphate pH 7.8, 5 mM CoCl2, 37 °C

Protein	Km [µM]	Vmax [µmol/min/mg]	kcat [s⁻¹]	kcat/Km [M⁻¹ s⁻¹]
B1	895.8 ± 338.1	24.7	18.8 ± 1.3	21000 ± 3700
B2	855.0 ± 339.2	43	34.2 ± 3.8	40000 ± 11000
B3	494.5 ± 67.4	112	82.5 ± 9.2	
